These are literature values, as cited in publication PMC7153410.

Data set [1] addresses MD-2 (UniProt Q9JHF9).
In data set [2] the target is RAGE (Homo sapiens) (UniProt Q15109).
For data set [3], the target named is TLR4-MD-2 (Homo sapiens) (UniProt O00206).
Data set [4] has the same target. The source holds these as a separate data set.
Data set [5] addresses RAGE (Homo sapiens) (UniProt Q15109). This is another data set of the same source.
Data set [6] has the same target. This is another data set of the same source.
The target in data set [7] is MD-2 (UniProt Q9JHF9). This is another data set of the same source.

Like-named read-outs stand apart in the source and are kept apart here.

UniProt Q15109, sequence (Q15109 23-404): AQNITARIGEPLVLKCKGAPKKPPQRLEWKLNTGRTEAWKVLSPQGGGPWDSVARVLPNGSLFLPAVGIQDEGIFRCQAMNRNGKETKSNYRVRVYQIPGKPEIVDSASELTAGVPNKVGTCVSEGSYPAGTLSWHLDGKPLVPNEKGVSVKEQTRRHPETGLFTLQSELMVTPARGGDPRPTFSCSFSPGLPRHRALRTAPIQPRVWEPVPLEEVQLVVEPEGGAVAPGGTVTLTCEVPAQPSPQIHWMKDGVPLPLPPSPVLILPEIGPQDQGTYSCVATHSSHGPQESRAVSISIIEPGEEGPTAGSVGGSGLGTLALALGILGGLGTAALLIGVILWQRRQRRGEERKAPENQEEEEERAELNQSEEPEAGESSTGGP
UniProt Q9JHF9, sequence (Q9JHF9 19-160): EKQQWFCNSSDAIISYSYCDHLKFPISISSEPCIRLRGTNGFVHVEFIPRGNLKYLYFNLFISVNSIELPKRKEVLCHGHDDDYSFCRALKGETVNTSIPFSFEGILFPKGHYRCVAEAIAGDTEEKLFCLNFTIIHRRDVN
UniProt O00206, sequence (O00206 24-839, chain 1 of 2): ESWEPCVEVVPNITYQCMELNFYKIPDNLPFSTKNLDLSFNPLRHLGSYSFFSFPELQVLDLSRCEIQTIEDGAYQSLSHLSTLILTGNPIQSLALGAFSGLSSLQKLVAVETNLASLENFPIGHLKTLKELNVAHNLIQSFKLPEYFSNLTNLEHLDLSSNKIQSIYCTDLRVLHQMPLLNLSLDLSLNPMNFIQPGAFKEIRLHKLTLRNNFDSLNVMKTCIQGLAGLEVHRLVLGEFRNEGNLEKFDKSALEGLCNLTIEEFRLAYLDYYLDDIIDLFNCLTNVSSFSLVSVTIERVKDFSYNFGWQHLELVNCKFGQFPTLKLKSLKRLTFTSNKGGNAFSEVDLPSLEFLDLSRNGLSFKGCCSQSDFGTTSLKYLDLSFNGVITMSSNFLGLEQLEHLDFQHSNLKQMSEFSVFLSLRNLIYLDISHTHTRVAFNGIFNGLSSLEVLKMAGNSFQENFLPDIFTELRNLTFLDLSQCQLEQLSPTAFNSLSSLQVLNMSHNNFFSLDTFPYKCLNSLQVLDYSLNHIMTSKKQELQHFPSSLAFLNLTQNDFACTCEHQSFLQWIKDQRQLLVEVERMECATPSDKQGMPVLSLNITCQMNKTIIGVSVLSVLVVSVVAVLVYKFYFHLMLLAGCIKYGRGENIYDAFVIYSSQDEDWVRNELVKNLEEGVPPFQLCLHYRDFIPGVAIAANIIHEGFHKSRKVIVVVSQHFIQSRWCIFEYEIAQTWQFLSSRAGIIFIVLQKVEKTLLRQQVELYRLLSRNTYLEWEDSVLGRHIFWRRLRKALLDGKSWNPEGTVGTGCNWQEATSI
UniProt O00206, sequence (Q9Y6Y9 19-160, chain 2 of 2, further chain): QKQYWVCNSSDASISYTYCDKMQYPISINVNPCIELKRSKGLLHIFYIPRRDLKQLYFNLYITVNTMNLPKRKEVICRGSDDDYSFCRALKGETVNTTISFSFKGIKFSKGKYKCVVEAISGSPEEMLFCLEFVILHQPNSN

S100A8 2-89 (from UniProt P27005): the Kd in data set [1] was 730 nM. In the case of S100A8-S100A9 (from UniProt P05109), the Kd in data set [2] was 9.4 nM; in data set [3], 3.8 nM. Regarding S100A9 (from UniProt P06702), the Kd in data set [4] is 2.1 nM; in data set [5], 38 nM.

For the substance S100A12 (from UniProt P80511), in data set [6], the Kd is 90 nM. As to SAA3 43-57 (from UniProt P04918), the Kd in data set [7] was 30000 nM.
